Laboratory results from patent publication US20160274110A1 (Novartis, published 2016).

T1: human GPR15 (human, UniProt P49685 1-360)
T1 sequence (looked up): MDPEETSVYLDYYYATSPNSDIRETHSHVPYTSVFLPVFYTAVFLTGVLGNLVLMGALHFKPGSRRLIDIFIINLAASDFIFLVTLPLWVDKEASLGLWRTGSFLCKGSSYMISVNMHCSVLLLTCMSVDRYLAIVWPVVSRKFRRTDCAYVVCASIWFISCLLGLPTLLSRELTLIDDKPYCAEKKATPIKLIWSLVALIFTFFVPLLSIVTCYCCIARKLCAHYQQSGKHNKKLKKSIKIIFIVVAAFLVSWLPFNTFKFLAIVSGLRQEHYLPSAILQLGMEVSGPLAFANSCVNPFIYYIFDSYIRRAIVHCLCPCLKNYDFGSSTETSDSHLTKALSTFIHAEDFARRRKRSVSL

T2: mouse GPR15 (mouse, UniProt Q0VDU3 1-360)
T2 sequence (looked up): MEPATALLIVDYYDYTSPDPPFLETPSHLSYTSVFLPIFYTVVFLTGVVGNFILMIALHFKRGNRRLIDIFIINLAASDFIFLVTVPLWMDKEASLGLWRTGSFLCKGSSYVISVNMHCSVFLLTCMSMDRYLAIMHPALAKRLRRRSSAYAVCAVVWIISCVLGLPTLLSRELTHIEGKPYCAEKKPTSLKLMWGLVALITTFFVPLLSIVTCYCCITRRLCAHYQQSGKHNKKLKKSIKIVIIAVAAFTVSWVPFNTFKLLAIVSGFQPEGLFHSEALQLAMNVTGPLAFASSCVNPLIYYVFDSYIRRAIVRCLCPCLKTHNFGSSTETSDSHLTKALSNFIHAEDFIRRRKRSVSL

B1: c10orf99 1-57, synthetic peptide KRRPAKAWSGRRTRLCCHRVPSPNSTNLKGHHVRLCKPCKLEPEPRLWVVPGALPQV (SEQ ID NO: 6) (ligand)
peptide: KRRPAKAWSGRRTRLCCHRVPSPNSTNLKGHHVRLCKPCKLEPEPRLWVVPGALPQV

Tests used:
human GPR15 = biological target: T1, human GPR15; assay: cell-based or functional assay
mouse GPR15 = biological target: T2, mouse GPR15; assay: cell-based or functional assay

Binder | EC50 in in vitro cellular assays (aequorin assay; cAMP in CHO-GPR15 and HEK-GPR15 cell lines) (human GPR15) | EC50 of GPR15 activation, Aequorin assay (luminescence, calcium) (human GPR15) | EC50 of GPR15 activation, Aequorin assay (luminescence, calcium) (mouse GPR15)
B1 | < 10 nM | – | –
QKPQLWVVPGALPQV | – | ~2 µM | ~2 µM
